{"source": "paper PMC11079029", "about": "“Intramolecular autoinhibition regulates the selectivity of PRPF40A tandem WW domains for proline-rich motifs” (Nature Communications, 2024)", "binders": {"B1": {"name": "GB1-tagged SF1 470-485 peptide (peptide)", "chain": "GAMSGSMPPPPMGMMPPPPPPPSGSN", "notes": "common N-terminal residues after the TEV site; SF1 residues 470-485; common C-terminal residues; source: E. coli BL21(DE3), purified (Ni-NTA, SEC), GB1 tag kept; not shown: GB1, N-terminal, kept"}, "B2": {"name": "GB1-tagged SF1 Pro ABCD (410-639) (domain or fragment, UniProt Q15637 410-639, looked up)", "chain": "GHPMQHNPNGPPPPWMQPPPPPMNQGPHPPGHHGPPPMDQYLGSTPVGSGVYRLHQGKGMMPPPPMGMMPPPPPPPSGQPPPPPSGPLPPWQQQQQQPPPPPPPSSSMASSTPLPWQQNTTTTTTSAGTGSIPPWQQQQAAAAASPGAPQMQGNPTMVPLPPGVQPPLPPGAPPPPPPPPPGSAGMMYAPPPPPPPPMDPSNFVTMMGMGVAGMPPFGMPPAPPPPPPQN", "notes": "SF1 residues 410-639, the whole proline-rich C-terminal region; also called complete C-terminal region of SF1; source: E. coli BL21(DE3), purified (Ni-NTA, SEC), GB1 tag kept; not shown: GB1, N-terminal, kept"}, "B3": {"name": "GB1-tagged SF1 575-590 peptide (SF1 PRPF40A WW binding site) (peptide)", "chain": "GAMSGSPPLPPGAPPPPPPPPPSGSN", "notes": "common N-terminal residues after the TEV site (TEVsite-GAMSGS-peptide-SGSN); SF1 residues 575-590; common C-terminal residues; pET24 vector with 6xHis, GB1 and TEV site as N-terminal cassette; not cut with TEV for ITC and NMR titrations; also called SF1_(WWbs); source: E. coli BL21(DE3), purified (Ni-NTA, SEC), GB1 tag kept; not shown: GB1, N-terminal, kept"}, "B4": {"name": "GB1-SF1(478-493) 16-mer peptide (peptide)", "chain": "GAMSGSMPPPPPPPSGQPPPPPSGSN", "notes": "common N-terminal residues after the TEV site (TEVsite-GAMSGS-peptide-SGSN); SF1 (splicing factor 1) residues 478-493; common C-terminal residues; pET24 vector with 6xHis, GB1 and TEV site as N-terminal cassette, not cleaved; source: E. coli BL21(DE3), purified (Ni-NTA, SEC); not shown: GB1, N-terminal, kept"}, "B5": {"name": "GB1-tagged SF3A1 Middle Pro (364-413) (domain or fragment, UniProt Q15459 364-413, looked up)", "chain": "EGQKVPPPPETPMPPPLPPTPDQVIVRKDYDPKASKPLPPAPAPDEYLVS", "notes": "SF3A1 residues 364-413, proline-rich region with a PPLP motif; also called SF3A1 region (364-413); source: E. coli BL21(DE3), purified (Ni-NTA, SEC), GB1 tag kept; not shown: GB1, N-terminal, kept"}, "B6": {"name": "GB1-SF1(425-440) 16-mer peptide (peptide)", "chain": "GAMSGSMQPPPPPMNQGPHPPGSGSN", "notes": "common N-terminal residues after the TEV site (TEVsite-GAMSGS-peptide-SGSN); SF1 (splicing factor 1) residues 425-440; common C-terminal residues; pET24 vector with 6xHis, GB1 and TEV site as N-terminal cassette, not cleaved; source: E. coli BL21(DE3), purified (Ni-NTA, SEC); not shown: GB1, N-terminal, kept"}, "B7": {"name": "GB1-SF1(623-638) 16-mer peptide (peptide)", "chain": "GAMSGSMPPFGMPPAPPPPPPQSGSN", "notes": "common N-terminal residues after the TEV site (TEVsite-GAMSGS-peptide-SGSN); SF1 (splicing factor 1) residues 623-638; common C-terminal residues; pET24 vector with 6xHis, GB1 and TEV site as N-terminal cassette, not cleaved; source: E. coli BL21(DE3), purified (Ni-NTA, SEC); not shown: GB1, N-terminal, kept"}, "B8": {"name": "GB1-SF1(470-485) 16-mer peptide (peptide)", "chain": "GAMSGSMPPPPMGMMPPPPPPPSGSN", "notes": "common N-terminal residues after the TEV site (TEVsite-GAMSGS-peptide-SGSN); SF1 (splicing factor 1) residues 470-485; common C-terminal residues; pET24 vector with 6xHis, GB1 and TEV site as N-terminal cassette, not cleaved; source: E. coli BL21(DE3), purified (Ni-NTA, SEC); not shown: GB1, N-terminal, kept"}}, "settings_in_all_cases": "both partners purified", "key": {"[1]": {"target": "T1, PRPF40A WW12 (tandem WW domains, residues 141-236) (human, UniProt O75400 141-236)", "T1 construct": "pETM11 vector, NcoI/KpnI; 15N or 13C,15N labelled for NMR; also called PRPF40A WW tandem; PRPF40A tandem WW domains; source: E. coli BL21(DE3), purified (Ni-NTA, TEV, reverse Ni-NTA, SEC); not shown: His6, N-terminal, cleaved", "assay": "ITC; 16-mer SF1 and polyproline peptides (N-terminal GB1 tagged) in the cell and PRPF40A construct in the syringe (said for Fig. 2; not told for Fig. 5C); 25 °C, 20 mM sodium phosphate pH 6.5, 100 mM NaCl; one-site model; apparent affinities"}, "[2]": {"target": "T1, PRPF40A WW12 (tandem WW domains, …)", "assay": "ITC; GB1-tagged SF1/SF3A1 constructs in the syringe and the WW tandem in the cell; 25 °C, 20 mM sodium phosphate pH 6.5, 100 mM NaCl; one-site model; apparent affinities"}, "[3]": {"target": "T2, PRPF40A N-ext-WW12 mutant (PPVP/PALPP motifs changed to alanine residues) (human, UniProt O75400 56-236, PPVP, residues 78-81, to alanine residues | PALPP, residues 123-127, to alanine …)", "T2 construct": "PRPF40A isoform 1, residues 56-236, with the motifs PPVP (78-81) and PALPP (123-127) changed to alanine residues; Made by site-directed mutagenesis; also called mutant version of the N-ext-WW12 construct; mutated version of the N-extWW12; source: E. coli BL21(DE3), purified (Ni-NTA, TEV, reverse Ni-NTA, SEC); not shown: His6, N-terminal, cleaved", "T2 sequence (looked up)": "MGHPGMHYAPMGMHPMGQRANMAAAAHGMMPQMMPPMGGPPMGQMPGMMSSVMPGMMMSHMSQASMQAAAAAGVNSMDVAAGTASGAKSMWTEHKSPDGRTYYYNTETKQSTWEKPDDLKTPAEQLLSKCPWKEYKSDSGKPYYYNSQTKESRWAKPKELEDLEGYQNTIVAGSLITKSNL", "assay": "ITC; 16-mer SF1 and polyproline peptides (N-terminal GB1 tagged) in the cell and PRPF40A construct in the syringe (said for Fig. 2; not told for Fig. 5C); 25 °C, 20 mM sodium phosphate pH 6.5, 100 mM NaCl; one-site model; apparent affinities"}, "[4]": {"target": "T3, PRPF40A N-ext-WW12 (residues 56-236) (human, UniProt O75400 56-236)", "T3 construct": "PRPF40A isoform 1, residues 56-236: N-terminal proline-rich region and the WW tandem; also called N-terminal extended WW12 construct; source: E. coli BL21(DE3), purified (Ni-NTA, TEV, reverse Ni-NTA, SEC); not shown: His6, N-terminal, cleaved", "T3 sequence (looked up)": "T2 sequence (looked up) with A23P, A24P, A25V, A26P, A68P, A70L, A71P, A72P", "assay": "ITC; 16-mer SF1 and polyproline peptides (N-terminal GB1 tagged) in the cell and PRPF40A construct in the syringe (said for Fig. 2; not told for Fig. 5C); 25 °C, 20 mM sodium phosphate pH 6.5, 100 mM NaCl; one-site model; apparent affinities"}, "[5]": {"target": "T4, PRPF40A WW12 (tandem WW domains, residues 141-236) (human, UniProt O75400 141-236)", "T4 construct": "pETM11 vector (NcoI/KpnI); also called PRPF40A WW tandem; isolated WW domains; source: E. coli BL21(DE3), purified (Ni-NTA, TEV cleavage, reverse Ni-NTA, SEC); not shown: His6, N-terminal, cleaved", "assay": "ITC; MicroCal PEAQ-ITC, 25 °C, 20 mM sodium phosphate pH 6.5, 100 mM NaCl; PRPF40A constructs and GB1-tagged SF1 16-mer peptides; who was in the syringe is not stated for these panels (Fig. 2B, Fig. 5C); one-site model"}, "[6]": {"target": "T5, PRPF40A N-ext-WW12 (residues 56-236) (human, UniProt O75400 56-236)", "T5 construct": "PRPF40A isoform 1, residues 56-236: N-terminal proline-rich region and both WW domains; pETM11 vector; also called Nter Ext WW12; N-terminal extended WW12 construct; source: E. coli BL21(DE3), purified (Ni-NTA, TEV cleavage, reverse Ni-NTA, SEC); not shown: His6, N-terminal, cleaved", "T5 sequence (looked up)": "T2 sequence (looked up) with A23P, A24P, A25V, A26P, A68P, A70L, A71P, A72P", "assay": "ITC; MicroCal PEAQ-ITC, 25 °C, 20 mM sodium phosphate pH 6.5, 100 mM NaCl; PRPF40A constructs and GB1-tagged SF1 16-mer peptides; who was in the syringe is not stated for these panels (Fig. 2B, Fig. 5C); one-site model"}}, "note": "Residue numbers refer to the chain shown, from its start. Values joined by “and” are separate entries in the source; they are usually repeats but may differ in a detail not shown here. Identical values can stand only once.", "data": [{"binder": "B1", "values": [{"measurement": "Kd", "setting": "[1]", "result": "~10", "unit": "µM"}]}, {"binder": "B2", "values": [{"measurement": "stoichiometry N", "setting": "[2]", "result": "3 PRPF40A tandems per SF1 construct"}]}, {"binder": "B3", "values": [{"measurement": "binding result", "setting": "[3]", "result": "binds"}, {"measurement": "Kd", "setting": "[1]", "result": 1.4, "unit": "µM"}, {"measurement": "Kd", "setting": "[4]", "result": 8.8, "unit": "µM"}]}, {"binder": "B4", "values": [{"measurement": "Kd", "setting": "[5]", "result": "8.26 µM and 10.3 µM and 10.2 µM and 9.59 µM"}]}, {"binder": "B5", "values": [{"measurement": "Kd", "setting": "[2]", "result": "~10", "unit": "µM"}]}, {"binder": "B6", "values": [{"measurement": "Kd", "setting": "[5]", "result": "15.9 µM and 21.8 µM and 22.9 µM and 20.2 µM"}]}, {"binder": "B7", "values": [{"measurement": "Kd", "setting": "[5]", "result": "21.8 µM and 24.8 µM and 23.3 µM"}]}, {"binder": "B8", "values": [{"measurement": "Kd", "setting": "[6]", "result": "> 250", "unit": "µM"}]}]}
